Ends that are not written are not given here.

The record followed here is paper PMC3518043 (Biochemistry, 2012).

In assay [1] the target is CHD5 tandem PHD1-2 as used in the ALPHA (UniProt Q8TDI0 338-468). Nature of the assay: AlphaScreen or HTRF.
Assay [2] addresses CHD5 tandem PHD1-2 (338-468), GST tag cleaved (UniProt Q8TDI0 338-468). Nature of the assay: SPR.
For assay [3], the target named is CHD5 PHD2 finger (413-468), GST tag cleaved (UniProt Q8TDI0 413-468). Nature of the assay: SPR.
Assay [4] concerns the target CHD5 PHD1 finger (338-393), GST tag cleaved (UniProt Q8TDI0 338-393). Nature of the assay: SPR.

CHD5 PHD1 finger (338-393), GST tag cleaved, sequence (Q8TDI0 338-393): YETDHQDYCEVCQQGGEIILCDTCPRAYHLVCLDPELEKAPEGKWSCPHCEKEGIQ
CHD5 tandem PHD1-2 (338-468), GST tag cleaved, sequence (Q8TDI0 338-468): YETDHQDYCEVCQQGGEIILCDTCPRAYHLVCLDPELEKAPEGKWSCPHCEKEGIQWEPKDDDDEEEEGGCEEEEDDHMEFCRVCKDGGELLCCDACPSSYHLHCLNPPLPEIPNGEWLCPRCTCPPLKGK
CHD5 PHD2 finger (413-468), GST tag cleaved, sequence (Q8TDI0 413-468): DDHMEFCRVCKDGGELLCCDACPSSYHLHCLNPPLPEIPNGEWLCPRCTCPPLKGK
CHD5 tandem PHD1-2 as used in the ALPHA, sequence (Q8TDI0 338-468): as the sequence (Q8TDI0 338-468) above

Consider ARTKQTARKST (peptide, UniProt P68431 2-12, looked up) [Histone H3 peptide (1-11) with C-terminal 6x-histidine], for which the binding result in assay [1] is “binds”.

Turning to ARTKQTARKST-biotin (peptide, UniProt P68431 2-12, looked up) [Histone H3 peptide (1-11) with C-terminal biotin], the Kd in assay [2] turned out to be 9.18 µM; in assay [3], 34.6 µM; in assay [4], 98.8 µM. Further, the values for the koff in assay [2], in assay [3] and in assay [4] were 0.00348 s⁻¹, 0.0136 ± 0.0003 s⁻¹ and 0.0103 ± 0.0001 s⁻¹, respectively. Moreover, the kon in assay [2] turned out to be 379 ± 7 M⁻¹ s⁻¹; in assay [3], 393 ± 13 M⁻¹ s⁻¹; in assay [4] it was 104 ± 7 M⁻¹ s⁻¹.
